The record followed here is the nanobody polyreactivity screen of Harvey et al. (2022).

A short description of this data set: yeast display, Sf9 membrane polyspecificity reagent, FACS + sequencing; frameworks hold sequencing errors. In outline:
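Galactose-induced (36–48 hours) yeast carrying a synthetic nanobody display library were exposed to 10% biotinylated, detergent-solubilized Sf9 membrane reagent at 4 °C for 1 hour. FACS followed streptavidin microbead enrichment, using low and high (top ~1%) gates for expression (anti-HA) and reagent binding (streptavidin). Colony PCR, MiSeq 2 × 250 sequencing and CDR-length filtering followed. Labels for polyreactivity reflect the gate of origin.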
“QVQLQERGGGLVQAGGSLRQRCAASRNISASSDLGWYHQAPGKEREFVASITSGGTTYYADSVKGRFTISRDNAKNTVYLQMNSLKPEDTAVYYCAVGDPADAEFGYWGKGTQVTVSS”: the “polyreactivity (PSR sort gate)” value is listed as “low polyreactivity”.
Take “QVQLQESAGARQPAPELRGERIYFWLLLMCWYRQAPGEERELVAGINDGASTNYADSVKGRFTISRDNARNTVYLKMNSLKPGDTAVYYCAVWQPVLIWFYYWGQGTHVTVSS”: the “polyreactivity (PSR sort gate)” value is on record as “high polyreactivity”.
On to “QVQLQESAGGLEQAGGSLRRICSARCNINSDASMGSYRQAPGKQREHAASTTKGSRTHDAESVKGRLTIRDNAKNTVYLQMNSLKPDDTAVCYSAVTYPYWGDYTYWGQGTQVTVSS”, for which the “polyreactivity (PSR sort gate)” value is “low polyreactivity”.
Then “QVQLQESAVLVQAGGSLRLSCPASGSISGRNVMGRYRQAQAKQREFVASITDGSSTNYADSVKGRFTISRDNAKNTVYLQMNSLNPKDTAVYYCAAYAQRAKSFGYWGRGTQVTVSS”, with “low polyreactivity”.
Then “QVQLQESDGGLVQAGGSLRLSCAASGSISPQYYMGWYRQAPGKEREFVAISKGTTTYYADSVKGRLTISRVNAKNTVYLQMNSLKPEDTAVYCCAAVRWLQKVHAYWDQGTQVTVSS”, with “low polyreactivity”; and “QVQLQESGAGLVQAGGSLRLSCAASGSIIHLHIMCWYRQAPRKERESVAAISYGTSTYYADSVKGRFTICRDNAKNTVYLQMNSPKPDDTAVYYCAALFLVSKHHHYWGEGTQVTVSS”, with “low polyreactivity”; and “QVQLQESGDGLVQADGSLRLSCAASGYISGYYYMGWYRQQPGKERELVAGIDAFGSSTNYADCVKGRFTISRDNGKNTVYLQMISPKPDDTAVYYCAAVYDDWDYHWYWGQGTQVTVSS”, with “low polyreactivity”.
In the case of “QVQLQESGDGLVQAVGSLRLSCAASGYISGYYYMGWYRQAPGKERELVAGIDAFGSSTNYADCVKGRFTISRDNATHTVYLQMNSLKPEDTAVYYCAARPDGDRLFSYWGQGTQVTVSS”, the “polyreactivity (PSR sort gate)” value is recorded as “low polyreactivity”.
The result for “QVQLQESGGCVVQAGGSLRLSCAASGTISDSGLMGWYRQAPGKERELVAGISSGGITNYADSVKGRFTISRDNAKNTVYLQMNSLKPEDTAVYWGQGTQVTVSS” reads “low polyreactivity”.
The result for “QVQLQESGGDLEQAGGSLRLSCTAIGTISDVRFMGWYRQAPGKERELVATISYVTITYYADSVKGRFTISRDSEKHRVSAHDEPETGRYRGVLLRYYWGLGTQVTVSS” reads “low polyreactivity”; that for “QVQLQESGGGLLQAGGSLRLSCAASGTIFRFRYMGWHRQAPGKERELVAGINGGTTTYYADSVIGRFTISRDNAKNTVYLQMNSLKPDDTAVYNCAAGASRLTYYDYWGQGTQVTVSS”, “low polyreactivity”; that for “QVQLQESGGGLLQECGSQRLSCAASGSISEGQDMGWYRRAPGKEREFVAGIAPGATTYYADSVKGRFTISRDNAKNTVYLQMNSLNPEDTAVYYCAARYVTESDHDYWGQVTQVTVSS”, “low polyreactivity”.
In the case of “QVQLQESGGGLVHAGGSLRLSCAASGTISFINMMGWYRQAPGRERELVASINFGANTNYADSVKGRFTISRDNAKNTVYLQMNSLKPEYTAVYYCAVYDFDAYSLYYWGQGTLVTVSS”, the “polyreactivity (PSR sort gate)” value was “high polyreactivity”.
With “QVQLQESGGGLVKAGGSLRLSCAASGSISNSAAMGWYRQAPGKERELVVSIGHGASSNYADSVKGRFTISRDNAKNTVYLQMNSLKPEDTAVYYCAAYPGFLDGFFYWGQSTQVTVSS”, the “polyreactivity (PSR sort gate)” value is recorded as “high polyreactivity”.
Then “QVQLQESGGGLVKAGGTPRLSCAASYNIFPDSVMCWYRQAPGTERELVATIGFVATTNYADSVKGRFTISRDNAKNTLYLQMNSLNPEDTAVYYCAAVPLNYEYFCYWGEGTQVTVSS”, with “low polyreactivity”; and “QVQLQESGGGLVLAGGSLRLSCSASGNIYVYGYKGWYRQAPRKEREFVATIDPGTNTNYADSVKDRFSISRDNAKNSVYLQMKSLKPEDNAVYYCAVEAGSDWPYRYWGLGTQVTVSS”, with “low polyreactivity”; and “QVQLQESGGGLVQACGSQRLSCAASGSISEGQDMGRYRRAPRKEREFVAGIAPGATTYYADSVKGRFTISRDNAKNTVYLQMNSLKPEDTAVYYCAARSVTETDHDYWGQGTQVTVSS”, with “low polyreactivity”.
As for “QVQLQESGGGLVQACSSLRLSCAASGTIFYYIMGWYRQAPGKERELVATIDLGGGTNYADSVKGRFTISRDDAKNTVYLQMSSLKPEDTAEYYCAVYLYRLTFFYYWGQGNQVTVSS”, the “polyreactivity (PSR sort gate)” value was “high polyreactivity”.
Regarding “QVQLQESGGGLVQADGSLRLSCAASGSIFGYYNMGWYRQAPGKHRELVATINLCRITNYADSVKGRFTISRDNATNTVYVEMHSLNPDDTAVFYCAADEYAQRDLGYWGQGTQVTVSS”, the “polyreactivity (PSR sort gate)” value is reported as “low polyreactivity”.
In the case of “QVQLQESGGGLVQADGSLRLSCAASGTIFTQSYMGWYRQAPGKEREFVAGISNGTNTNYGDSVKGRFTISRDNAKNTVYLQMNSLKLEDTAVYYCAVKGFYVDVLAYWGQGTHVTVSS”, the “polyreactivity (PSR sort gate)” value is “high polyreactivity”.
The result for “QVQLQESGGGLVQAGGDLRLSCAASGNIFRDYIMGWYRQAPGKEREFVAGIDRGANTNYADSVKGRFTISRDNAKNTVYLQMNSLKQEDTAVYYCAVHTAIVPDFIYWGQGTQVTVSS” reads “low polyreactivity”.
The result for “QVQLQESGGGLVQAGGSLCLSCAASGTIIFDGDMGWYRQAPGKEREFVAAINPGGSAYYADSVKGRLPLAAITHTVYLQMNCLKPEDTAVYYCAAKLFDVYGYYYWGQGTHVTVSS” reads “low polyreactivity”; that for “QVQLQESGGGLVQAGGSLLSCAASGPISYYREMGWYRQAPGKERELVAGFGVGTITYYADSVKGRFTISRDNAKNTVYLQMNSLKPEVTAVYYCAAHIDGNDSHAYWGQGTQVTVIS”, “low polyreactivity”.
For the sequence “QVQLQESGGGLVQAGGSLRLGCAASGNISDAGYMGWYRQAPGKEREFVAAIAAGSNTNYADSVKGRFTISRDNAKNTVYMQLNSLKSEDTGVFYCAVASYDRVQYEYWGQGTQVTVNS”, the “polyreactivity (PSR sort gate)” value is given as “low polyreactivity”.
Then “QVQLQESGGGLVQAGGSLRLSCAARGNIFLGDTMGWYRQAPGKEREFVAGIARGGNPYYADSVKGRFTISRNNAKNTVYLQKNSLKPVDTAVHYCAVQRSHASDYNYWGQGTQVTVSS”, with “low polyreactivity”; and “QVQLQESGGGLVQAGGSLRLSCAASGNIFGTKSMGWYRQAPGKGREFVAAINDGGSTNYADSVKGRFTIGRDNAKNTVYLQMNSLKPEDTAVYYCAAQWVRSDYHTYWGQGTQVTVSS”, with “high polyreactivity”; and “QVQLQESGGGLVQAGGSLRLSCAASGNISVTGVMGWYRQAPGKERELVASIGIGGTTYYADSVKGRFSISRDNAKNTVYLQMNSLKPEDTAVYYCGARYVYSAYSYWGQGSQVTVSS”, with “low polyreactivity”.
Consider “QVQLQESGGGLVQAGGSLRLSCAASGNIVDADIMGWSRQAPGKERELVASITDGGSTNYADSVKGRFTISRDYAKNTVYLQMNSLKPEDTAVYYCAAIAYPDIPTYIDYDSEYFYWGQGTQVTVSS”, for which the “polyreactivity (PSR sort gate)” value is given as “low polyreactivity”.
Then “QVQLQESGGGLVQAGGSLRLSCAASGSIFADVQMGWYRQAPGKELELVASINFRGTTTYYADSVKGRFTISRDNAKNTVYLQMSSLKPEDNAVYYCAVGRSEGGDFAYWGQGTHVTVSS”, with “low polyreactivity”; and “QVQLQESGGGLVQAGGSLRLSCAASGSIFDSTFMGWYRQAPGKERELVAGISYGTITYYADSVKGRFTISRDNAKHRVSAEEQPESGRYRGVLLRGYPAGQLFLACWGQGTQVTESS”, with “high polyreactivity”.
The result for “QVQLQESGGGLVQAGGSLRLSCAASGSIFDTPTMGWYRQAPGKERELVASIAYDDNTYYADSVKGRFTISRYNAKHTVYLQMNSLKPGDTAVYYCAVTDRIYYYFVYWGQGTRVTVSS” reads “high polyreactivity”; that for “QVQLQESGGGLVQAGGSLRLSCAASGSIFKVVDMGLYRQAPAKEREFVATIGEGGNTYYADSVKGRFTISRDNAKNTVYLQMHSLKPEDTAVYFYAVVLGTSYRYTYWGQGTQVTVSS”, “low polyreactivity”; that for “QVQLQESGGGLVQAGGSLRLSCAASGSIFLLHIMCWYRQAPGKERESVAAISYGTSTYYADSVNGRFTICRDNAKNTVYLQMNSPKPDDTAVYYCAALFLVSKHHHFWGEGTQVTVSS”, “low polyreactivity”.
The result for “QVQLQESGGGLVQAGGSLRLSCAASGSIFVSVTMGWYRQAPGKERELVASIGRGSTTNHADSVKGRFTISRDNAKNIVYLLMNSLKPEDTAVYSCAALESYGKYHGYWGQGTQVTVSS” reads “low polyreactivity”.
Take “QVQLQESGGGLVQAGGSLRLSCAASGSIFVSVTMGWYRQAPGKERELVASIGRGSTTNHADSVKGRFTISRDNAKNIVYLLMNSLKPEDTAVYYCASLESYGKYHGYWGQGTQVTVSS”: the “polyreactivity (PSR sort gate)” value is “low polyreactivity”.
For “QVQLQESGGGLVQAGGSLRLSCAASGSISAVGAMGWYRQAPGKEREFAASVNWGTNTNYADSVKGRFTISRDNAKTTLYLQMNSLKPEDTAVYYCAADVQITSAGGDYDYWGQGTQVTVSS”, the “polyreactivity (PSR sort gate)” value is recorded as “low polyreactivity”.
On to “QVQLQESGGGLVQAGGSLRLSCAASGSISGPQVMVWYRQAPGKEREFVAAINVGANTYYADNVKGRFTISRDNAKNTVYLQMNSLKPEDTAVYYCAAVYYGDIGHESWGQGTQVTVSC”, for which the “polyreactivity (PSR sort gate)” value was “low polyreactivity”.
The result for “QVQLQESGGGLVQAGGSLRLSCAASGSISLGRGMGWYRQAPGKREFVVTIAASVNWGTNTNYADSVKGRFTISRDNAKNTLYLQMNSLKPEDTAVYYCAVLPEWETRHDYWGHGTQVTVSS” reads “low polyreactivity”.
“QVQLQESGGGLVQAGGSLRLSCAASGSISRLDYRGWYRQASGKERELVAAIDNGSTTYYADSVKGRLTISRDNAKYTVYLQMNSLKPEDTAVYFCAAVRGRGGTHAYWGQGTQVTVSG”: the “polyreactivity (PSR sort gate)” value is “low polyreactivity”.
As to “QVQLQESGGGLVQAGGSLRLSCAASGSISYPRTMGWYREAPGKEREFVAGIGVGGTTYYADSVKGRFTISRDNAKNTVYLQMNSLKPEDAAVYYCAVAAYYDKYYVYWGQGTQVTVSC”, the “polyreactivity (PSR sort gate)” value is “low polyreactivity”.
The result for “QVQLQESGGGLVQAGGSLRLSCAASGSLFLFYTMGWYRQAPVIEREFVAGITLGTTTYNADSVKGRFTISRDNVKNTVFLQMNSLKPEDTAVYYCAVAVGHYTEFWYWGQGTQVTMSS” reads “high polyreactivity”.
